Biological target: high molecular weight kininogen (single-chain) (UniProt P01042 19-644)
Test: microtiter plate binding assay (streptavidin-peroxidase); Proteins coated at 10 ug/mL in 100 mM sodium carbonate pH 9.5 (4 C, 20 h); blocked with TBS + 3% BSA; biotinylated DNA 0.31-50 ug/mL, 22 C, 2 h; TBS washes; binding buffer composition and pH not stated
Details: protein: commercial; hairpin, blunt-ended

Sequence of high molecular weight kininogen (single-chain) (P01042 19-644): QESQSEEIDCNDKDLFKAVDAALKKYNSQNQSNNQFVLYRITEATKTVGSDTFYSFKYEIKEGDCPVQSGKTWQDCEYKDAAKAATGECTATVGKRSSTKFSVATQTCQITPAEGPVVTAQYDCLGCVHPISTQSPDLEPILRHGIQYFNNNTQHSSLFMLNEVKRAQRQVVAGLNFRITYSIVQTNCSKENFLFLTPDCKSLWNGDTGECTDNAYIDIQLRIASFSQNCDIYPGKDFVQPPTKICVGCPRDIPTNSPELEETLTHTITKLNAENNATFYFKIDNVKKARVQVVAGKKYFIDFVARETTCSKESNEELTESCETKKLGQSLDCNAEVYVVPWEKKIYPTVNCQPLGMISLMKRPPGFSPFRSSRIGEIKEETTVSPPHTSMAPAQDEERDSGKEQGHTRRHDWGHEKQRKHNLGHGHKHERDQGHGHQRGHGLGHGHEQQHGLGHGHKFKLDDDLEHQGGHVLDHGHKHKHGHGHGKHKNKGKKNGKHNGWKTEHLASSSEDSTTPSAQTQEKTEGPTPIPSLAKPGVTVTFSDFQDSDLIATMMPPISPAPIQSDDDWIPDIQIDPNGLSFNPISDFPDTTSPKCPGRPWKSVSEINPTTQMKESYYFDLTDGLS

Binder: GGGAATGGGTATTCCCATCCC (structured_DNA) [21mer-H1 DNA]
- Kd: 1.82 ± 0.23 µM

Source: article PMC3511531, “Structural Requirements for the Procoagulant Activity of Nucleic Acids”
